The target of experiment [1] is PKA holoenzyme (PKA_(holo)) formed by wild-type RIIα and PKAc (mouse) (UniProt P12367). Put plainly: native gel or EMSA; SEC peak fraction on precast 3–8% Tris-Acetate native gels, 50 mM Tris pH 8.3, 50 mM Tricine, silver staining. Background: Mobility shift assays separate free from complexed probe on a gel.
The target in experiment [2] is AKAP18γ (human γ isoform of AKAP18), strep-II and 6xHis tagged (human).
Experiment [3] concerns the target RIIα (type IIα regulatory subunit of PKA), wild type, RIIα-6xHis (mouse) (UniProt P12367). Put plainly: native gel or EMSA; SEC peak fraction on precast 3–8% Tris-Acetate native gels, 50 mM Tris pH 8.3, 50 mM Tricine, silver staining.

Sequence of AKAP18γ–GFP (human) (Q9P0M2 whole entry): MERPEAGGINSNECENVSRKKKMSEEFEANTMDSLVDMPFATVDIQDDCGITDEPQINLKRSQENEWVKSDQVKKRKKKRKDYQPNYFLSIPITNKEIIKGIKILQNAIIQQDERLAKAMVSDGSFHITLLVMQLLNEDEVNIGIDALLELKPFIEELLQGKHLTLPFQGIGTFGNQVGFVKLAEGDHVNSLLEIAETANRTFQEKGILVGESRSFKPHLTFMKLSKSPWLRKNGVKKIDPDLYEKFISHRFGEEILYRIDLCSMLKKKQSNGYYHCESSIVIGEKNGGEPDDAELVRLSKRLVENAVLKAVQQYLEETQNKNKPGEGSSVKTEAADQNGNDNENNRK

“AKAP18γ (human γ isoform of AKAP18), strep-II and 6xHis tagged (natural protein)”: in experiment [1], the stoichiometry N (AKAP18γ per RIIα dimer with two PKAc) turned out to be 1. Substance “PDE4D (type 4 phosphodiesterase isoforms PDE4D3 / PDE4D5) (enzyme)” registered a cAMP phosphodiesterase activity in anti-GFP immune complexes from HEK293 cells, fold over GFP controls or rolipram-treated samples in the experiment with AKAP18γ–GFP (human) of 3.27 fold. In addition, in experiment [2], the basal (cAMP-independent) 32P incorporation into PDE4D by PKA holoenzyme with against without AKAP18γ, autoradiography; the substrate here was purified MBP-PDE4D3 was 1.87 fold. Broadly, the stoichiometry N is a count of units in the complex or per binding partner. Regarding “RIIα (type IIα regulatory subunit of PKA), wild type, RIIα-6xHis (from UniProt P12367 1-401) (natural protein; other documents disagree on this pair)”, the stoichiometry N in experiment [3] was found to be 2 subunits.

(Values after PMC3814001.)
